Assay results from article PMC11161758 (Proceedings of the National Academy of Sciences of the …, 2024).

Biological target: T1, N-terminal FLAG tag-p22phox (human, UniProt P13498 1-195)
T1 sequence: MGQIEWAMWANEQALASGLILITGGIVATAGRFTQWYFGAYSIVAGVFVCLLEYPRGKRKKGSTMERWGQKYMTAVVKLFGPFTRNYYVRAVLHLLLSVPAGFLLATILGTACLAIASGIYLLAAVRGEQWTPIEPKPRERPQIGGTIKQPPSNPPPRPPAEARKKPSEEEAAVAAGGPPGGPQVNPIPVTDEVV
Assay: cryo-EM structure

B1: NOX2 (gp91phox), catalytic subunit of phagocyte NADPH oxidase (enzyme)
chain: MGNWAVNEGLSIFVILVWLGLNVFLFVWYYRVYDIPPKFFYTRKLLGSALALARAPAACLNFNCMLILLPVCRNLLSFLRGSSACCSTRVRRQLDRNLTFHKMVAWMIALHSAIHTIAHLFNVEWCVNARVNNSDPYSVALSELGDRQNESYLNFARKRIKNPEGGLYLAVTLLAGITGVVITLCLILIITSSTKTIRRSYFEVFWYTHHLFVIFFIGLAIHGAERIVRGQTAESLAVHNITVCEQKISEWGKIKECPIPQFAGNPPMTWKWIVGPMFLYLCERLVRFWRSQQKVVITKVVTHPFKTIELQMKKKGFKMEVGQYIFVKCPKVSKLEWHPFTLTSAPEEDFFSIHIRIVGDWTEGLFNACGCDKQEFQDAWKLPKIAVDGPFGTASEDVFSYEVVMLVGAGIGVTPFASILKSVWYKYCNNATNLKLKKIYFYWLCRDTHAFEWFADLLQLLESQMQERNNAGFLSYNIYLTGWDESQANHFAVHHDEEKDVITGLKQKTLYGRPNWDNEFKTIASQHPNTRIGVFLCGPEALAETLSKQSISNSESGPRGVHFIFNKENF
modifications: N-glycan moieties at asparagines 132, 149 and 240; two hemes bound
With B1 the “stoichiometry N” value was 1.
